{
  "source": "paper PMC5103362",
  "about": "(Autophagy, 2016)",
  "binders": {"B1": {"name": "Atg38, full-length (natural protein, S. cerevisiae, UniProt Q05789 1-226, looked up)", "chain": "MSTLAEVYTIIEDAEQECRKGDFTNAKAKYQEAIEVLGPQNENLSQNKLSSDVTQAIDLLKQDITAKIQELELLIEKQSSEENNIGMVNNNMLIGSVILNNKSPINGISNARNWDNPAYQDTLSPINDPLLMSILNRLQFNLNNDIQLKTEGGKNSKNSEMKINLRLEQFKKELVLYEQKKFKEYGMKIDEITKENKKLANEIGRLRERWDSLVESAKQRRDKQKN", "notes": "also called purified Atg38; free Atg38; source: E. coli, purified (Glutathione Sepharose, TEV, HiTrap Q, S75); not shown: GST, N-terminal, cleaved"}},
  "key": {"[1]": {"molecular_target": "T1, yeast complex I (Vps15-Vps34-Vps30-Atg14 heterotetramer) (S. cerevisiae, UniProt P22219 1-1454; P22543 1-875; Q02948 1-557; P38270 1-344)", "T1 construct": "Vps15, S. cerevisiae, subunit of complex I; Vps34, S. cerevisiae, subunit of complex I; Vps30/Atg6, S. cerevisiae, subunit of complex I; Atg14, S. cerevisiae, subunit of complex I; expected mass 379 kDa; also called CI; heterotetrameric S. cerevisiae complex I; copies: 1 + 1 + 1 + 1", "T1 sequence (Q02948 whole entry, one chain of several)": "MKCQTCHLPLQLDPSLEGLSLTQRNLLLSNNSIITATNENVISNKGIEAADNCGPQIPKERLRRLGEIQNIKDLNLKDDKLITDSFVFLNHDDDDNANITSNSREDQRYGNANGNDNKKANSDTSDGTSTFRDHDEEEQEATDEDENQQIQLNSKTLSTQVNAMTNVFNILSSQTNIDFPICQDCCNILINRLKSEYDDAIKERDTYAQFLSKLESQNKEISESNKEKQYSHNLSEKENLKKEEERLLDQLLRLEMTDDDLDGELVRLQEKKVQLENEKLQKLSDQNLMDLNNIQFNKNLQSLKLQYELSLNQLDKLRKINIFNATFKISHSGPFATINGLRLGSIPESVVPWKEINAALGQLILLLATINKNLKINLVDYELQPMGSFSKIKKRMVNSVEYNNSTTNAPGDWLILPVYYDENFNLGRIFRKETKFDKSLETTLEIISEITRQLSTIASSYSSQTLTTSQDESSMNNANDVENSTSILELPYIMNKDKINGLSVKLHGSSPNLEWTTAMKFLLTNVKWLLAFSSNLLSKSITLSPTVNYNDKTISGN", "assay": "SEC; purified yeast complex I mixed with purified Atg38 at 6:1 or 1:6 molar ratio (8.6 µM complex I with 1.4 or 51.7 µM Atg38), on ice 30 min, S200 10/30; 20 mM Tris pH 8.8, 150 mM NaCl, 0.5 mM TCEP; fractions on SDS-PAGE", "details": "both partners purified"}, "[2]": {"molecular_target": "T2, Atg14 (subunit of the purified yeast complex I) (S. cerevisiae, UniProt P38270 1-344)", "T2 construct": "Atg14, S. cerevisiae", "T2 sequence (looked up)": "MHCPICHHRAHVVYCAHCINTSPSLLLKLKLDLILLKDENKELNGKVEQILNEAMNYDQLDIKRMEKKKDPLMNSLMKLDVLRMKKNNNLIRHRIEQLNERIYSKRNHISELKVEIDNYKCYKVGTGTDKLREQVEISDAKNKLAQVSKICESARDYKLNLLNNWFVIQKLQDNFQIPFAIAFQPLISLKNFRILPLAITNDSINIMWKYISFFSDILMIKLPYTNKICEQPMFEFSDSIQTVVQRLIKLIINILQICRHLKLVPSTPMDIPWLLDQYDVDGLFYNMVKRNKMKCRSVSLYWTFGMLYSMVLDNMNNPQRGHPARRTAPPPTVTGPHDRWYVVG", "assay": "HDX-MS; complex I, free Atg38 and gel-filtered complex I + Atg38; 2.5 µM protein, 20 mM Tris pH 8.0, 50 mM NaCl, 2 mM TCEP, 75% D2O, 3 to 3000 sec at 23°C", "details": "both partners purified"}, "[3]": {"molecular_target": "T1, yeast complex I …", "assay": "SEC-MALS; purified yeast complex I (co-expressed, co-purified) and gel-filtration purified complex I + Atg38 on S200 10/30; 20 mM Tris pH 8.8, 150 mM NaCl, 1 mM TCEP", "details": "both partners purified"}, "[4]": {"molecular_target": "the molecule itself", "assay": "SEC-MALS; Atg38 full-length, MIT domain and deletion variants alone on S75 10/30; 20 mM Tris pH 7.9, 300 mM NaCl, 1 mM TCEP"}},
  "data": [
    {"binder": "B1", "values": [
      {"measurement": "stoichiometry N", "setting": "[1]", "value": "2 Atg38 chains per complex I"},
      {"measurement": "binding result", "setting": "[2]", "value": "binds"},
      {"measurement": "stoichiometry N", "setting": "[3]", "value": "1 Atg38 homodimer per complex I"},
      {"measurement": "stoichiometry N", "setting": "[4]", "value": 2}
    ]}
  ]
}
